This test relates to Naïve CD4 T-cells. The test can be described thus: In vitro T-cell differentiation in DC conditioned medium, IL-17/IL-10 in supernatants by ELISA. The note with it: IL-6 supplemented to DCCM-apoptotic B-cells. Type of test: cell-based, C57BL/6J mice. On the procedure: Bone marrow (BM)-derived GM-CSF DC cultures were grown in RPMI supplemented with GM-CSF and 5% foetal bovine serum (FBS), plus 100 μg/mL penicillin, 100 μg/mL streptomycin, 2 mM L-glutamine, 10 mM HEPES, 1 nM sodium pyruvate, 1×MEM nonessential amino acids, and 2.5 μM β-mercaptoethanol (all from Sigma-Aldrich, St. Louis, Mo.), as previously dcseribed^1. Semi-adherent cells were harvested on ice on day 5 and re-plated immediately in fresh GM-CSF medium at 1×10^6 cells/well in 24-well tissue culture-treated plates. Soluble or phagocytic stimuli were added right away to the plates in the same medium and the cells were centrifuged for 2 min at 2000 rpm. Supernatants (conditioned medium, CM) were collected after 18 hours. LPS (from E. coli, serotype 055:B5, L-2880) was purchased from Sigma-Aldrich. BMDC were treated with various doses of soluble LPS or 2:1 A20 LPS blasts:DC to titrate the LPS such that levels of IL-6 produced by DC in response to these stimuli was similar. Soluble LPS was used at a final concentration of 1 ng/mL. The A20 B-cell line was obtained from the ATCC (TIB-208). A20 LPS blasts were prepared by culturing A20 cells at 1×10^6 cells/mL, 3 mL/well in 6-well tissue culture plates for four days in RPMI medium supplemented with 10% FBS, with 100 μg/mL penicillin, 100 μg/mL streptomycin, 2 mM L-glutamine, 10 mM HEPES, 1 nM sodium pyruvate, plus 25 μg/mL LPS, as previously described in Blander, J. M. and Medzhitov, R. (2004) Science 304(5673):1014. […] Cells were centrifuged, counted, and apoptosis was induced by UV irradiation at 350 mJ. […]
Naïve CD4 T cells were isolated first by sorting with MACS® CD4^+ beads (Miltenyi Biotech, Auburn, Calif.) according to manufacturer's instructions and then by fluorescence activated cell sorting (FACS) using a MoFlo™, Vantage, or Influx™ cell sorter for CD25^−CD44^lowCD62L^high cells using allophycocyanin (APC)-conjugated anti-CD25 monoclonal antibody (mAb) (clone PC61.5), FITC-conjugated CD62L mAb (clone MEL-14), and PE-Cy5-conjugated CD44 mAb (clone IM7) (all from eBioscience™, San Diego, Calif.). […]
On the technique in general: ELISA stands for enzyme-linked immunosorbent assay.

B1: IL-6: cytokine interleukin-6 (Peprotech), 50 ng/mL (protein, UniProt P08505 25-211, looked up)
Interleukin-6: FPTSQVRRGDFTEDTTPNRPVYTTSQVGGLITHVLWEIVEMRKELCNGNSDCMNNDDALAENNLKLPEIQRNDGCYQTGYNQEICLLKISSGLLEYHSYLEYMKNNLKDNKKDKARVLQRDTETLIHIFNQEVKDLHKIVLPTPISNALLTDKLESQKEWLRTKTIQFILKSLEEFLKVTLRSTRQT
Consider B1, for which the IL-17 production result was “restored IL-17 production”.

For the origin of these results see US8628762B2, “T-helper cell type 17 lineage-specific adjuvants, compositions and methods” (Icahn School of Medicine at Mount Sinai, priority 2008, dated 2014).
